This note sets out measurements from publication PMC6208348 (Nature Communications, 2018).

Non-standard residues stand in square brackets, D forms with d. No end group written: not given here. pY = N[C@@H](Cc1ccc(OP(=O)(O)O)cc1)C(=O)O

This assay concerns the target GST-fused Grb2 SH2 domain (human, UniProt P62993 60-152). Kind of assay: peptide or protein array. As to conditions: both partners purified.

Sequence of GST-fused Grb2 SH2 domain (P62993 60-152): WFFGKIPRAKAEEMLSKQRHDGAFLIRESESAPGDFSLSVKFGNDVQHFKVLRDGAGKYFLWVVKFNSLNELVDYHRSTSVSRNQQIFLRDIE

B1: Shc1 pTyr317 peptide (DPSpYVNVQNL) on the permutation array (peptide)
peptide: DPS[pY]VNVQNL
With B1, the binding result was “binds”.
